Values of other authors in patent publication US9770419B2, “Methods and compositions of camel derived products” (priority 2012, dated 2017).

What was measured:
HCV (genotype 4a) = conditions: compared with human, bovine and sheep lactoferrin
[1] = system: colon cancer cell line, HCT-116; conditions: in vitro

B1: Camel Lactoferrin: iron containing protein, molecular mass 76-80 kDa, 689 amino acids residues, isolated from camel milk (protein, UniProt Q9TUM0 20-708, looked up)
Lactotransferrin: ASKKSVRWCTTSPAESSKCAQWQRRMKKVRGPSVTCVKKTSRFECIQAISTEKADAVTLDGGLVYDAGLDPYKLRPIAAEVYGTENNPQTHYYAVAIAKKGTNFQLNQLQGLKSCHTGLGRSAGWNIPMGLLRPFLDWTGPPEPLQKAVAKFFSASCVPCVDGKEYPNLCQLCAGTGENKCACSSQEPYFGYSGAFKCLQDGAGDVAFVKDSTVFESLPAKADRDQYELLCPNNTRKPVDAFQECHLARVPSHAVVARSVNGKEDLIWKLLVKAQEKFGRGKPSGFQLFGSPAGQKDLLFKDSALGLLRISSKIDSGLYLGSNYITAIRGLRETAAEVELRRAQVVWCAVGSDEQLKCQEWSRQSNQSVVCATASTTEDCIALVLKGEADALSLDGGYIYIAGKCGLVPVLAESQQSPESSGLDCVHRPVKGYLAVAVVRKANDKITWNSLRGKKSCHTAVDRTAGWNIPMGLLSKNTDSCRFDEFLSQSCAPGSDPRSKLCALCAGNEEGQNKCVPNSSERYYGYTGAFRCLAENVGDVAFVKDVTVLDNTDGKNTEQWAKDLKLGDFELLCLNGTRKPVTEAESCHLAVAPNHAVVSRIDKVAHLEQVLLRQQAHFGRNGRDCPGKFCLFQSKTKNLLFNDNTECLAKLQGKTTYEEYLGPQYVTAIAKLRRCSTSPLLEACAFLMR
For B1, the “inhibitory effect on HCV” value (HCV (genotype 4a)) is given as “higher than human, bovine and sheep lactoferrin”, the “proliferation of HCT-116” value [1] is given as “inhibit the proliferation” and the DNA damage (DNA damage) is given as “inhibit”. For the same molecule, the antioxidant activities (DNA damage) was “exhibits antioxidant activities”.
